Data reported in US20230220443.

Target: H3(1-53) peptide

B1: protein lysine N-methyltransferase (histone H3 lysine-9 specific) from Neurospora crassa (NcDIM-5) (protein)
chain: IRSFATHAQLPISIVNREDDAFLNPNFRFIDHSIIGKNVPVADQSFRVGCSCASDEECMYSTCQCLDEMAPDSDEEADPYTRKKRFAYYSQGAKKGLLRDRVLQSQEPIYECHQGCACSKDCPNRVVERGRTVPLQIFRTKDRGWGVKCPVNIKRGQFVDRYLGEIITSEEADRRRAESTIARRKDVYLFALDKFSDPDSLDPLLAGQPLEVDGEYMSGPTRFINHSCDPNMAIFARVGDHADKHIHDLALFAIKDIPKGTELTFDYVNGLTGLESDAHDPSKISEMTKCLCGTAKCRGYLW
Q: Which Km for peptide H3(1-53), TM0936-coupled methyltransferase assay (absorbance 263 nm), SAM saturating, 7.6 nM NcDIM-5, glycine buffer pH 9.50 does the source give for B1 here?
A: 0.9 µM
